“Also recorded” adds a separate entry of the source.
Assays:
[1] = tested on: CA1-LTP in hippocampal slices; test: CA1-LTP in hippocampal slices (theta-burst); assay type: cell-based, mouse; conditions: for Aβ-induced impairment of CA1-LTP (words): fusion protein 20 nM 1 hr, then plus Aβ 200 nM 20 min; for LTP in slices not treated with Aβ (words): fusion protein 20 nM, 3 theta-burst trains
[2] = tested on: BST at the Schaffer collateral/CA1 connection of hippocampal slices; test: Basal synaptic transmission (BST) in hippocampal slices; assay type: cell-based, mouse; conditions: for BST in WT slices (words): fusion protein 20 nM 1 hr or Aβ 200 nM 20 min, alone
mice (WT and APP/PS1) = test: Contextual and cued fear conditioning; assay type: in vivo, mouse; conditions: for contextual freezing of APP/PS1 mice 1 day after training: 0.02-0.04 g/kg i.p. 4 hrs before training, 3-5 month-old
Description: Behavioral Studies: Fear conditioning was performed in a conditioning chamber as previously described (Bourtchuladze et al., 1994; Gong et al., 2004). For contextual and cued fear conditioning mice were placed in the conditioning chamber for 2 min before the onset of a discrete tone (CS) (a 30 sec sound at 2800 Hz and 85 dB). In the last 2 sec of the CS, mice were given a foot shock (US) of 0.50 mA for 2 sec through the bars of the floor. After the CS/US pairing, the mice were left in the conditioning chamber for another 30 sec and then placed back in their home cages. Freezing behavior, defined as the absence of all movement except for that necessitated by breathing, was scored using Freezeview software. To evaluate contextual fear learning, freezing was measured for 5 min in the chamber in which the mice were trained 24 hrs after training. To evaluate cued fear conditioning, following contextual testing, the mice were placed in a novel context (triangular cage with smooth flat floor and with vanilla odorant) for 2 min (pre-CS test), after which they were exposed to the CS for 3 min (CS test), and freezing was measured. To evaluate the contextual fear over time, mice were placed for 5 min in the chamber in which the mice were trained 7- 14- 21-days after training. Sensory perception of the shock was determined through threshold assessment. Each animal was placed individually into the conditioning chamber. […] Animal behavior was evaluated for the first visible response to the shock (flinch), the first extreme motor response (run/jump), and the first vocalized distress (scream). Threshold to flinching, jumping, and screaming was quantified for each animal by averaging of the shock intensity at which each animal manifested a behavioral response of that type to the foot shock. Visual, motor, and motivation skills were also tested with visible platform training by measuring the time and the speed to reach a visible platform placed within a pool filled with water (Gong et al., 2004). Both time to reach the platform and swimming speed were recorded and analyzed with a video tracking system (HVS-2020, HVS Image, UK). No difference was observed among different groups of mice in the experiments in which fear conditioning was tested both in the presence of LDN and TAT fusion proteins. To decide the time of administration of LDN, experiments were performed in which the inhibitor was injected intra-peritoneally at different intervals (4 hrs before, 1 hr before, 1 hr after and 4 hrs after) from the electric shock. During the training phase, no difference was found in the freezing of LDN- or vehicle-injected mice.

[3] = tested on: SY5Y neuroblastoma cells transfected with a degron CL1-GFP expression vector; test: Proteasome reporter assay (GFP^u); assay type: cell-based, human; conditions: fusion protein 20 nM with Aβ
How it was run: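 SH-SY5Y neuroblastoma cells stably expressing GFP fused to CL1 degron (GFP^u) in DMEM with 15% FBS. After treatment, GFP^u levels quantified by densitometry of anti-GFP immunoblots of total extracts (10 ug/lane), normalized to ERK.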

phospho-CREB at Ser-133 = test: Phospho-CREB (Ser-133) Western blot in hippocampal cultures; assay type: cell-based, rat
How it was run: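 Rat E18 hippocampal neurons cultured serum-free to 5 DIV, lysed in RIPA (pH 7.4, with phosphatase and protease inhibitors). Lysates resolved by SDS-PAGE and immunoblotted with anti-pCREB, HRP detection; band intensities quantified by densitometry and normalized to total ERK1/2.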

[4] = 20 nM, 1 hr, listed as TAT-Uch-L1 fusion protein
[5] = 12-18 month APP/PS1 slices, 20 nM 1 hr
[6] = listed as TAT-HA-Uch-L1 peptide
[7] = listed as Uch-L1 fusion protein

B1: TAT-HA-Uch-L1: fusion protein: 11-amino acid transduction domain of HIV-transactivator protein (TAT) fused with an HA tag and human Uch-L1 (protein)
chain: MQLKPMEINPEMLNKVLSRLGVAGQWRFVDVLGLEEESLGSVPAPACALLLLFPLTAQHENFRKKQIEELKGQEVSPKVYFMKQTIGNSCGTIGLIHAVANNQDKLGFEDGSVLKQFLSETEKMSPEDRAKCFEKNEAIQAAHDAVAQEGQCRVDDKVNFHFILFNNVDGHLYELDGRMPFPVNHGASSEDTLLKDAAKVCREFTEREQGEVRFSAVALCKAA
modifications: left off: small tags and cut ends
[1]; 20 nM, 1 hr
  LTP in slices from 4 month-old APP/PS1 mice: far greater potentiation; also recorded: elevated above vehicle treated slices; also recorded: completely reversed
  LTP in slices from 4 month-old WT mice: did not change the amplitude of LTP; also recorded: had no effect on LTP amplitude
  LTP in slices from 12-18 month-old APP/PS1 mice: greater potentiation; also recorded: had a beneficial effect; also recorded: reversed the impairment of LTP
  LTP in slices from 12-18 month-old WT mice: did not change the amplitude of LTP; also recorded: did not vary the amounts of potentiation; also recorded: did not affect LTP
[1]; [4]
  LTP in slices from 12-18 month-old APP/PS1 mice: reverses the decrease of LTP
  LTP in slices from 12-18 month-old WT mice: does not affect LTP
[1]; 4 month APP/PS1 slices, 20 nM 1 hr
  Levels of LTP at 120 minutes after tetanus: about 94 % those of TAT-HA-treated WT littermates
[1]; 4 month WT slices, 20 nM 1 hr
  Levels of LTP at 120 minutes after tetanus: about 98 % those of vehicle-treated WT slices
[1]; [5]
  levels of LTP: about 82 % that of TAT-HA-treated WT littermates
[1]; 12-18 month WT slices, 20 nM 1 hr
  Levels of LTP at 120 minutes after tetanus: 98.5 % of those of TAT-HA-treated WT slices
[1]; 1 hr pre-treatment, then Aβ 200 nM 20 min, as low as 5 nM
  rescue of LTP at different concentrations, S18Y versus TAT-HA-Uch-L1 (words): No difference was detected; also recorded: no difference between the two forms
[1]; WT slices, 1 theta-burst train instead of 3
  LTP induced by weak tetanus: enhanced LTP; also recorded: increases LTP
[1]
  Aβ-induced impairment of CA1-LTP (words): protected against LTP suppression; also recorded: completely reversed
[1]; [6]
  Aβ-induced impairment of CA1-LTP (words): protected against LTP suppression
[1]; listed as TAT-Uch-L1 fusion protein
  Aβ-induced impairment of CA1-LTP (words): reversed; also recorded: rescued
[1]; [7]
  Aβ-induced impairment of CA1-LTP (words): reverses the deficits of LTP
[1]; 1 hr, WT slices
  LTP in slices not treated with Aβ (words): did not change the amplitude of LTP; also recorded: had no effect on LTP; also recorded: did not affect the amounts of potentiation; also recorded: did not affect LTP
[1]; 1 hr, WT slices, listed as Uch-L1 fusion protein
  LTP in slices not treated with Aβ (words): does not affect
[1]; non-tetanized slices
  baseline transmission in slices without tetanic stimulation: did not modify the baseline; also recorded: had no effect on basal synaptic responses; also recorded: did not affect baseline transmission; also recorded: did not affect basal transmission; also recorded: Neither TAT-HA-Uch-L1 nor TAT-HA-iUch-L1 affected baseline transmission
[2]; 20 nM, 1 hr
  BST in slices from 12-18 month-old APP/PS1 mice: also improved; also recorded: improved BST
[2]; [5]
  BST: about 94 % that of TAT-HA-treated WT mice
[2]
  BST in WT slices (words): did not reveal any significant difference among treatments; also recorded: does not affect CA1-BST
[2]; [7]
  BST in WT slices (words): does not affect
Mice (WT and APP/PS1)
  contextual freezing of APP/PS1 mice 1 day after training: failed to re-establish normal freezing; also recorded: does not improve learning the day after training
Mice (WT and APP/PS1); listed as TA-HA-Uch-L1
  contextual freezing of APP/PS1 mice 1 day after training: failed to re-establish normal freezing
Mice (WT and APP/PS1); 0.02-0.04 g/kg i.p., listed as TA-HA-Uch-L1
  freezing responses of WT mice: had no effect
Mice (WT and APP/PS1); 0.02-0.04 g/kg, i.p.
  freezing responses of WT mice: did not change the freezing time; also recorded: had no effect
Mice (WT and APP/PS1); single injection 0.02-0.04 g/kg i.p. 4 hrs prior to training
  contextual freezing of APP/PS1 mice at 7, 14 and 21 days after training: greatly increased the freezing time; also recorded: improves the retention of contextual fear conditioning; also recorded: re-established normal freezing time
[3]
  Aβ-induced increase of GFP^u: reversed
[3]; [6]
  Aβ-induced increase of GFP^u: blocked the increase of GFP^u
phospho-CREB at Ser-133; fusion protein 100 nM, 3 μM Aβ 24 hrs, 50 μM glutamate 15 min
  effect of Aβ on glutamate-induced CREB phosphorylation (words): totally blocked the effect of Aβ on CREB phosphorylation; also recorded: re-established; also recorded: completely opposed
phospho-CREB at Ser-133; fusion protein alone, no glutamate
  levels of phospho-CREB: did not affect levels of phospho-CREB
